Measurements published in article PMC10502012.

What was measured:
[1] = biological target: chicken PHT1 (purified, wild type) (chicken); assay: thermal shift (nanoDSF); concentration-dependent thermal shift of PHT1 with dipeptides; KD fitted by a modified Hall's method
[2] = biological target: chicken PHT1 (purified, wild type) (chicken); assay: thermal shift (nanoDSF); TASL peptide titration: PHT1 with eleven 2-fold peptide dilutions from 100 µM; gel filtration buffer with 5% DMSO; KD fitted by a modified Hall's method

Substance	Kd [1] [µM]	Kd [2] [µM]
Arginine-Phenylalanine dipeptide	73	
Lysine-Valine dipeptide	63	
TASL_(1-13) peptide		0.36
TASL peptide with a length of 14 residues		0.4
